Data on 1 molecule can be found in CN113151186A (UNIV SHANGHAI JIAOTONG, dated 2021).

The target in this assay is T1, 全长CD271蛋白抗原 (human CD271, full-length protein antigen) (human, UniProt P08138 29-250, limits assumed).
T1 construct: Printed only as full-length CD271 protein; also called CD271全长蛋白; 全长抗原CD271
T1 sequence (looked up): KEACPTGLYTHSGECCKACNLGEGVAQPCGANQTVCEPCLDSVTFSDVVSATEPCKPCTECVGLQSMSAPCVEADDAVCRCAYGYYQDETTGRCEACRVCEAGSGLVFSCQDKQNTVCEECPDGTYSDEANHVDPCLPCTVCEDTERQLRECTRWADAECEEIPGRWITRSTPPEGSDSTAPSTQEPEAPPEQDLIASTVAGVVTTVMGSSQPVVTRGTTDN
The assay can be described thus: BLI (ForteBio), full-length CD271 immobilised on ProA sensor, antibody at 30-130 nM.

B1: 抗人CD271单克隆抗体 CD271T-2 (小鼠腹水纯化抗体, 杂交瘤细胞株CD271T-2, CGMCC 21494) (antibody, V domains shown)
VH: QVTLKESGPGILKPSQTLSLTCSFSGFSLSTSGMGVGWIRQPSGKGLEWLAHIWWDDDKYYNPSLKSQLTISKDTSRNQVFLKITSVDTAGTATYYCARRDYGNYYAMDYWGQGTSVTVS
VL: DIVLTQSPASLAVSLGQRATISCKASQSVDYDGDSYMNWYQQKPGQPPKLLIYAASNLESGIPARFSGSGSGTDFTLNIHPVEEEDAATYYCQQSNEDPFTFGSGTKLEIK
notes: It was purified from mouse ascites on MabSelect SuRe; also called CD271T-2腹水纯化抗体; 抗人CD271腹水抗体
Regarding B1, binding was put at a Kd of 3.37 nM, the koff turned out to be 0.000225 s⁻¹ and the kon came out at 66900 M⁻¹ s⁻¹.
